Test results: patent US20180074053A1 (priority 2016, published 2018)
Non-standard residues stand in square brackets, D forms with d. No end group written: not given here.

How the values were obtained:
MrgprD^−/− (KO) mice = settings: 0.5 mg/g with 2 mg/g glucose oral; P<0.05 KO vs. WT
Procedure: (§1) The mice were fasted overnight and their fasting glucose levels were measured. […] Blood glucose levels were measured at 30, 60, 90 and 120 minutes after glucose loading.
as §1

C57BL/6J mice = assay: Oral glucose tolerance test (OGTT); assay type: in vivo, mouse
Procedure: (§2) C57BL/6J mice were received from Jackson Laboratories at 4 weeks old and aged to 7 weeks and then grouped by body weight into 4 groups of 10. The mice were fasted overnight (12 hours) prior to the assay. Body weights and blood glucose (FreeStyle Lite glucometer) levels were determined. […] At 30, 60, 90, and 120 minutes glucose levels were measured using whole blood collected from the tip of the tail via needle puncture. Upon the final 120 min measurement, food was returned to the mice.
Oral glucose tolerance tests (OGTTs) were performed as described in Example 1.
as §2, with “puncture.” for “puncture. Upon the final 120 min measurement, food was returned to the mice.”
as §2, with “puncture.” for “puncture. Upon the final 120 min measurement, food was returned to the mice.”

[1] = tested on: C57/BL/6J mice and diabetic mouse models; settings: previous studies (Zhang 2013; U.S. Pat. No. 8,664,177); cited from earlier work
HUVEC cells = settings: 4 mM time course, 0.05-32.0 mM for 60 minutes; FIGS. 16, 17
Procedure: Briefly, HUVEC cells, previously plated in 96-well plate, were washed and the media changed to DMEM with 3% FBS for overnight incubation and cell starvation. On the day of the experiment, the cells were incubated with DAF-FM diacetate (Molecular Probes, catalog #D23842) at the final concentration of 7-10 nM for 30 minutes. […] Every treatment was performed in triplicate. The fluorescence was detected starting at 10 min with exc/em of 495 nm/515 nm.
The background signal (fluorescence signal from cells that were not loaded with dye) was subtracted from the other measurements.
Briefly, HUVEC cells, previously plated in 96-well plate, were washed and the media changed to DMEM with 3% FBS for overnight incubation and cell starvation. On the day of the experiment, the cells were incubated with DAF-FM diacetate (Molecular Probes, catalog #D23842) at the final concentration of 7-10 nM for 30 minutes. […] Every treatment was performed in triplicate. The fluorescence was detected 60 minutes with exc/em of 495 nm/515 nm.

NMUR1 = target: T1, NMUR1 (UniProt Q9HB89 1-426, limits assumed); assay: cell-based or functional assay
T1 sequence (looked up): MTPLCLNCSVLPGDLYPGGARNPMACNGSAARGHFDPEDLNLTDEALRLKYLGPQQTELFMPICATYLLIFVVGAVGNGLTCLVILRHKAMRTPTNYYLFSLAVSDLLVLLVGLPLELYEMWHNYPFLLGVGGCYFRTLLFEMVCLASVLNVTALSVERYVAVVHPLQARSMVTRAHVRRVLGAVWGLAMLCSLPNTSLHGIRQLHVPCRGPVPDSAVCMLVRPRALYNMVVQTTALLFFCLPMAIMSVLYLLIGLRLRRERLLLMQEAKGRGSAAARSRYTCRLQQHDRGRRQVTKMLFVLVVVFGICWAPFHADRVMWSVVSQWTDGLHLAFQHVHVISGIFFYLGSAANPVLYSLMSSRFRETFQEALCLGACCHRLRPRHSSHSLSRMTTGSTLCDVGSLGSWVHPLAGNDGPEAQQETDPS

MC2 = MC2 (UniProt Q01718 1-297); assay: cell-based or functional assay
[2] = target: MAS-related G-protein-coupled receptor member D (MRGD) (human, UniProt Q8TDS7 1-321); assay: cell-based or functional assay
Sequence of MAS-related G-protein-coupled receptor member D (MRGD) (Q8TDS7 whole entry): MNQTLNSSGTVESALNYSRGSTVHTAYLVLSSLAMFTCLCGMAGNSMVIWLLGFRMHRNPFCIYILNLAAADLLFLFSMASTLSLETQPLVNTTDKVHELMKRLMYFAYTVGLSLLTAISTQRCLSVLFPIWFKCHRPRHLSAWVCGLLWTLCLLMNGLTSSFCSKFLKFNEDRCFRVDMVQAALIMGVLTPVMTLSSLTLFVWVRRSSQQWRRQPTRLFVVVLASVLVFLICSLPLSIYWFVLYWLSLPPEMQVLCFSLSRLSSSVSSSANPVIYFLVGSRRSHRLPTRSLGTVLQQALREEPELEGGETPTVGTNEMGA

Sequence of MC2 (Q01718 whole entry): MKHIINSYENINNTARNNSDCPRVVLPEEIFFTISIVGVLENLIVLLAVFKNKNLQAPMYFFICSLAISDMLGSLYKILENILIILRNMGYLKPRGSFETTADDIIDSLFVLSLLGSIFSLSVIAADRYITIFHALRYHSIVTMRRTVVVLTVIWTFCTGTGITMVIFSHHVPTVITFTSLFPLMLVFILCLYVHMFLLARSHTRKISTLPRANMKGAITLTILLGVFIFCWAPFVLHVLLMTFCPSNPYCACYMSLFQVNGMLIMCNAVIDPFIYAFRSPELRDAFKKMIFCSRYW

CC(C)C[C@@H](NC(=O)CNC(=O)CN)C(=O)O
reduction of blood glucose levels in KO mice compared with WT mice (OGTT) (MrgprD^−/− (KO) mice): significantly impaired
significance of blood glucose lowering in OGTT (C57BL/6J mice; Example 5, FIG. 9, 0.1 mg/g): significant
significance of blood glucose lowering in OGTT (C57BL/6J mice; Example 5, FIG. 9, 0.5 mg/g): significant
significance of blood glucose lowering in OGTT (C57BL/6J mice; Example 5, FIG. 9, 1 mg/g): significant
blood glucose in response to a glucose load (OGTT) (C57BL/6J mice; Example 5, FIG. 9, 1, 0.5 and 0.1 mg/g body weight): lower blood glucose in response to a glucose load, in a dose-dependent manner
overall effect on blood glucose compared with metformin (C57BL/6J mice; Example 9): not found to be significantly different
overall effect on blood glucose in OGTT vs vehicle (C57BL/6J mice; Example 9, FIG. 14, DT-110 1 mg/g, alamandine 10 mg/g, metformin 0.2 mg/g): significant
rise in blood glucose at 30 min in OGTT (C57BL/6J mice; Example 9, DT-110 1 mg/g, P<0.001 vs. all other treatments): dramatically blocked the rise in blood glucose
effect on blood glucose compared with alamandine (C57BL/6J mice; Example 9, P<0.001): significantly different from alamandine
blood glucose [1]: lower blood glucose
nitric oxide (NO) release (HUVEC cells): Stimulates Nitric Oxide Release

B1: DT-110, tripeptide glycine-glycine-D-leucine (GGdL) (peptide)
peptide: Gly-Gly-[dL]
percent activation (calcium flux, GPCRProfiler), DT-110 @ 1.25 mM, Avg. (NMUR1): 0.5%
percent activation (calcium flux, GPCRProfiler), DT-110 @ 1.25 mM, n1 (NMUR1): 1.3%
percent activation (calcium flux, GPCRProfiler), DT-110 @ 1.25 mM, n2 (NMUR1): -0.4%
percent activation (calcium flux, GPCRProfiler), DT-110 @ 12.5 mM, Avg. (NMUR1): -0.1%
percent activation (calcium flux, GPCRProfiler), DT-110 @ 12.5 mM, n1 (NMUR1): -0.7%
percent activation (calcium flux, GPCRProfiler), DT-110 @ 12.5 mM, n2 (NMUR1): 0.5%
percent activation (calcium flux, GPCRProfiler), DT-110 @ 1.25 mM, Avg. (MC2): -0.7%
percent activation (calcium flux, GPCRProfiler), DT-110 @ 1.25 mM, n1 (MC2): 0.6%
percent activation (calcium flux, GPCRProfiler), DT-110 @ 1.25 mM, n2 (MC2): -2%
percent activation (calcium flux, GPCRProfiler), DT-110 @ 12.5 mM, Avg. (MC2): -1%
percent activation (calcium flux, GPCRProfiler), DT-110 @ 12.5 mM, n1 (MC2): -1%
percent activation (calcium flux, GPCRProfiler), DT-110 @ 12.5 mM, n2 (MC2): -0.9%
EC50, calcium mobilization in MRGD cells (FIG. 12) [2]: ~360 µM
EC50, calcium mobilization in MRGD over-expressing cells (FIG. 5) [2]: 76 µM
EC50, calcium mobilization in the MRGD cell line (FIG. 8) [2]: 161 µM
